Results: IntAct's records for PubMed 29039417

B1: Protein PTHB1 (Homo sapiens), Q3SYG4 (parent)
chain: MSLFKARDWWSTILGDKEEFDQGCLCLANVDNSGNGQDKIIVGSFMGYLRIFSPHPAKTGDGAQAEDLLLEVDLRDPVLQVEVGKFVSGTEMLHLAVLHSRKLCVYSVSGTLGNVEHGNQCQMKLMYEHNLQRTACNMTYGSFGGVKGRDLICIQSMDGMLMVFEQESYAFGRFLPGFLLPGPLAYSSRTDSFLTVSSCQQVESYKYQVLAFATDADKRQETEQQKLGSGKRLVVDWTLNIGEQALDICIVSFNQSASSVFVLGERNFFCLKDNGQIRFMKKLDWSPSCFLPYCSVSEGTINTLIGNHNNMLHIYQDVTLKWATQLPHIPVAVRVGCLHDLKGVIVTLSDDGHLQCSYLGTDPSLFQAPNVQSRELNYDELDVEMKELQKIIKDVNKSQGVWPMTEREDDLNVSVVVSPNFDSVSQATDVEVGTDLVPSVTVKVTLQNRVILQKAKLSVYVQPPLELTCDQFTFEFMTPDLTRTVSFSVYLKRSYTPSELEGNAVVSYSRPTDRNPDGIPRVIQCKFRLPLKLICLPGQPSKTASHKITIDTNKSPVSLLSLFPGFASQSDDDQVNVMGFHFLGGARITVLASKTSQRYRIQSEQFEDLWLITNELILRLQEYFEKQGVKDFACSFSGSIPLQEYFELIDHHFELRINGEKLEELLSERAVQFRAIQRRLLARFKDKTPAPLQHLDTLLDGTYKQVIALADAVEENQGNLFQSFTRLKSATHLVILLIALWQKLSADQVAILEAAFLPLQEDTQELGWEETVDAAISHLLKTCLSKSSKEQALNLNSQLNIPKDTSQLKKHITLLCDRLSKGGRLCLSTDAAAPQTMVMPGGCTTIPESDLEERSVEQDSTELFTNHRHLTAETPRPEVSPLQGVSE
partner: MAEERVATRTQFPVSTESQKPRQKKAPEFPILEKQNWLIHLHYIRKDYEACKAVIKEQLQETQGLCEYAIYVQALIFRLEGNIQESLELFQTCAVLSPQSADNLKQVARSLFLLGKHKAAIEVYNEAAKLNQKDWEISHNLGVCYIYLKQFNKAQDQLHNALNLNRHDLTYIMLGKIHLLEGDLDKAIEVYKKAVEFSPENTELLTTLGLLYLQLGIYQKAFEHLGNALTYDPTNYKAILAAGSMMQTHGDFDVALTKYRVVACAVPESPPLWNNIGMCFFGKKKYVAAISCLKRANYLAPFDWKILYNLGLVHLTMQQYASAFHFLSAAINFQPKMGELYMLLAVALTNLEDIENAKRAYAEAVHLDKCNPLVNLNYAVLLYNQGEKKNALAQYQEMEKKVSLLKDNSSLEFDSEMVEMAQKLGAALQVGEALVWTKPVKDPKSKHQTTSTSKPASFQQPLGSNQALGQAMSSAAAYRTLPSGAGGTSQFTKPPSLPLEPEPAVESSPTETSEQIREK

Variants of: B1
Conditions: with bbs4_human BBS4, Q96RK4

Row | Variant | effect of a mutation on the interaction
1 | V838K | disrupting interaction strength
2 | E660K | with no effect
3 | D773K | with no effect
4 | V415E | with no effect
5 | T697A | with no effect
6 | T697C | disrupting interaction strength
7 | T782E | with no effect
8 | E765A | with no effect
9 | L766K | with no effect
10 | E761K | with no effect
11 | L695E | with no effect
12 | V879E | with no effect
13 | L825A | with no effect
14 | T482A | with no effect
15 | L591A | with no effect
16 | V885A | with no effect
17 | N553E | with no effect
18 | Q447E | with no effect
19 | L699K | disrupting interaction strength
20 | T845E | with no effect
21 | L779E | with no effect
22 | L692E | with no effect
23 | E769K | with no effect
24 | A708K | with no effect
25 | G884K | with no effect
26 | S820E | with no effect

Row | Variant | effect of a mutation on the interaction
27 | S820K | with no effect
28 | W741E | with no effect
29 | I523E | with no effect
30 | D859K | with no effect
31 | M578E | with no effect
32 | L863E | with no effect
33 | L863K | with no effect
34 | Q426A | with no effect
35 | T871E | with no effect
36 | I751K | with no effect
37 | E615K | with no effect
38 | K492A | with no effect
39 | F624K | with no effect
40 | F624E | with no effect
41 | P877A | with no effect
42 | Q471A | with no effect
43 | L642E | with no effect
44 | L814K | with no effect
45 | L411A | with no effect
46 | L411E | with no effect
47 | T861A | with no effect
48 | V522K | with no effect
49 | R669A | with no effect
50 | I657E | with no effect
51 | G842A | with no effect
52 | R674P | disrupting interaction strength

Row | Variant | effect of a mutation on the interaction
53 | K594E | with no effect
54 | K821A | with no effect
55 | R824E | with no effect
56 | R678E | with no effect
57 | R678K | disrupting interaction strength
58 | P802E | with no effect
59 | F756K | with no effect
60 | C826A | with no effect
61 | V440E | with no effect
62 | Q672A | with no effect
63 | R598K | with no effect
64 | T844E | with no effect
65 | Q462T | disrupting interaction strength
66 | F563S | disrupting interaction strength
67 | S806E | with no effect
68 | S541A | with no effect
69 | L827E | with no effect
70 | P479E | with no effect
71 | L452A | with no effect
72 | Y703K | with no effect
73 | A455K | with no effect
74 | L698A | with no effect
75 | Y508E | with no effect
76 | S486K | with no effect
77 | G538K | with no effect
78 | R683K | with no effect

Row | Variant | effect of a mutation on the interaction
79 | P530A | with no effect
80 | D804F | disrupting interaction strength
81 | Q643E | with no effect
82 | V459A | disrupting interaction strength
83 | G518K | with no effect
84 | G518A | with no effect
85 | E668K | with no effect
86 | V856A | with no effect
87 | L533A | with no effect
88 | F472K | with no effect
89 | T549K | with no effect
90 | L531E | with no effect
91 | M477K | with no effect
92 | A675H | disrupting interaction strength
93 | Q835A | with no effect
94 | L583A | with no effect
95 | R493E | with no effect
96 | F632A | with no effect
97 | A567K | with no effect
98 | N658K | with no effect
99 | T702E | with no effect
100 | D571K | with no effect
101 | F864E | with no effect
102 | S880E | with no effect
103 | V442A | with no effect
104 | T428A | with no effect

Row | Variant | effect of a mutation on the interaction
105 | T428E | with no effect
106 | Q627E | with no effect
107 | N503A | with no effect
108 | L609E | with no effect
109 | R818E | with no effect
110 | L529A | with no effect
111 | Q693A | disrupting interaction strength
112 | T478E | with no effect
113 | T478K | with no effect
114 | K786E | with no effect
115 | L559E | with no effect
116 | A670E | with no effect
117 | P463T | disrupting interaction strength
118 | V485K | with no effect
119 | P689A | with no effect
120 | S568K | with no effect
121 | A712E | with no effect
122 | S498K | with no effect
123 | K803E | with no effect
124 | L491A | with no effect
125 | L491K | with no effect
126 | G718A | with no effect
127 | G718E | with no effect
128 | Y495E | with no effect
129 | Y623K | with no effect
130 | G584K | with no effect

Row | Variant | effect of a mutation on the interaction
131 | S787A | with no effect
132 | S788K | with no effect
133 | L618K | with no effect
134 | H811E | with no effect
135 | Q722A | with no effect
136 | Q858A | with no effect
137 | D608E | with no effect
138 | D747A | disrupting interaction strength
139 | F474E | with no effect
140 | Q748K | disrupting interaction strength
141 | A682E | with no effect
142 | D429E | with no effect
143 | A586E | with no effect
144 | D850E | with no effect
145 | R483E | with no effect
146 | S860K | with no effect
147 | L740E | with no effect
148 | E878K | with no effect
149 | E878A | with no effect
150 | L737E | with no effect
151 | L737K | with no effect
152 | L446A | with no effect
153 | G638A | with no effect
154 | K626A | with no effect
155 | K532A | with no effect
156 | E431K | with no effect

Row | Variant | effect of a mutation on the interaction
157 | L851A | with no effect
158 | D572N | disrupting interaction strength
159 | N866K | with no effect
160 | N866E | with no effect
161 | T405E | with no effect
162 | V590E | with no effect
163 | L720K | with no effect
164 | H778K | with no effect
165 | H778A | with no effect
166 | G565R | disrupting interaction strength
167 | L709E | with no effect
168 | R521A | with no effect
169 | P520A | with no effect
170 | S494A | with no effect
171 | S494E | with no effect
172 | G822A | with no effect
173 | H694K | with no effect
174 | P556E | with no effect
175 | V413E | with no effect
176 | R600A | with no effect
177 | Q524E | with no effect
178 | T595A | with no effect
179 | L562A | with no effect
